In test [1] the target is OX40 on OX40 over-expressed cells (UniProt P43489). Description: flow cytometry, 1 µg/ml isotype control on OX40 over-expressed cells (PBS: 1388). Background: In flow cytometry, cells or beads pass a laser one at a time.
The target is the same in test [2]. The test is described as follows: flow cytometry, 1 µg/ml positive reference on OX40 over-expressed cells.

OX40 on OX40 over-expressed cells, sequence (P43489 29-277): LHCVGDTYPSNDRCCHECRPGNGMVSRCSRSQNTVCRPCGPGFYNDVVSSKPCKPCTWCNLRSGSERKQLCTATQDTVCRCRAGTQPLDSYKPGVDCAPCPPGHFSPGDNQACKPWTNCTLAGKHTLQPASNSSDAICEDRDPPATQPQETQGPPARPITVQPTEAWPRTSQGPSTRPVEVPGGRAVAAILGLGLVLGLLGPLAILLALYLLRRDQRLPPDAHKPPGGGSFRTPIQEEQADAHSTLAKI

Substance “IgG2a isotype control (clone MG2a-53, Biogene) (antibody)” registered a Y586 channel PE fluorescence value in test [1] of 1830.
Turning to “anti-OX40 antibody (clone ACT35, Biogene)”, the Y586 channel PE fluorescence value in test [2] amounted to 210000.
